In CN112125972A (SINOCELLTECH LTD, dated 2020):

Key:
Assay in all cases: indirect ELISA, VLP coated at 2 μg/mL, antibody at 10 ng/mL
HPV45 VLP = molecular target: T1, HPV45 VLP (Human papillomavirus type 45, UniProt P36741 27-539)
T1 construct: also called HPV45完整VLP蛋白
T1 sequence: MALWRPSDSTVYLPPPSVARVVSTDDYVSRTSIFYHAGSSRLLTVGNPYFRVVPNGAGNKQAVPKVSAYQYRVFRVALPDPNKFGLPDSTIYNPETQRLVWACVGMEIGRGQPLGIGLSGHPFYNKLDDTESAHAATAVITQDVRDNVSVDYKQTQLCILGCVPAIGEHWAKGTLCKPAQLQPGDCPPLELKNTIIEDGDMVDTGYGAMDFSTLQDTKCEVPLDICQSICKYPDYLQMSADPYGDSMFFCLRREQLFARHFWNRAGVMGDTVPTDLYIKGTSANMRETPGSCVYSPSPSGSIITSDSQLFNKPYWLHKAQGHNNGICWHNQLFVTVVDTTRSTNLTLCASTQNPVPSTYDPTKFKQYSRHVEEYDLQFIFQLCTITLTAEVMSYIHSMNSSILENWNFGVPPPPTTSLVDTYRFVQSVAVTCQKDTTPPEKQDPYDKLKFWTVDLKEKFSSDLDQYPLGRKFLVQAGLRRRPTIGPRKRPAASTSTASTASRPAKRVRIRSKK

HPV11 VLP = molecular target: T2, HPV11 VLP (Human papillomavirus type 11, UniProt P04012 1-501)
T2 construct: also called HPV11完整VLP蛋白
T2 sequence: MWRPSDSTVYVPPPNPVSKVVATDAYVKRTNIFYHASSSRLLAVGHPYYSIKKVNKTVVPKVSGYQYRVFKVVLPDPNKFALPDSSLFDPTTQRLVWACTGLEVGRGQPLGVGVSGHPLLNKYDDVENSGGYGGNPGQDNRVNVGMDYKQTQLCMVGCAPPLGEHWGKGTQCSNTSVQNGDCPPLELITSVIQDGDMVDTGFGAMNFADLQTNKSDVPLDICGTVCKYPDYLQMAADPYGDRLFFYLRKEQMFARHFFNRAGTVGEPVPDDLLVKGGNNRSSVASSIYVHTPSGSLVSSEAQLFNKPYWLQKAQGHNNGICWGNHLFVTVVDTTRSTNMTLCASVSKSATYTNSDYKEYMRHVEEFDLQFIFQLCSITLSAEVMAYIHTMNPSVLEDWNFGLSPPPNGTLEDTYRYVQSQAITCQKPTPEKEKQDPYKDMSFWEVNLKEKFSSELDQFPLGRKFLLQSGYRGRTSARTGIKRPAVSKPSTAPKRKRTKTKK

HPV59 VLP = molecular target: T3, HPV59 VLP (Human papillomavirus type 59)
T3 construct: also called HPV59完整VLP蛋白

HPV33 VLP = molecular target: T4, HPV33 VLP (Human papillomavirus type 33, UniProt P06416 1-499)
T4 construct: also called HPV33完整VLP蛋白
T4 sequence: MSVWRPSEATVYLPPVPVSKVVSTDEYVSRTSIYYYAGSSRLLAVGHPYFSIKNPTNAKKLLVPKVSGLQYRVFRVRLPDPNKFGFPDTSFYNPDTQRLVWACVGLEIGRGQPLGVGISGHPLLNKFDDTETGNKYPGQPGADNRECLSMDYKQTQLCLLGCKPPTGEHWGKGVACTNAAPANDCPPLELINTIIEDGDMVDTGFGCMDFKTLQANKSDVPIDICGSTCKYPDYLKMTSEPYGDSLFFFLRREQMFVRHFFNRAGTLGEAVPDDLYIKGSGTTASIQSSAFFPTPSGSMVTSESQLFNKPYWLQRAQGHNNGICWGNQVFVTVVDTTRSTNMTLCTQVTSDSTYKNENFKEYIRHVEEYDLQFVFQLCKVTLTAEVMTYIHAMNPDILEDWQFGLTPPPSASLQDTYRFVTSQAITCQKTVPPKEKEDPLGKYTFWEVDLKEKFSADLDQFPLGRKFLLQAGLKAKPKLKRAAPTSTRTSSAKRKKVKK

HPV58 VLP = molecular target: T5, HPV58 VLP (Human papillomavirus type 58, UniProt P26535 27-524)
T5 construct: also called HPV58完整VLP蛋白
T5 sequence: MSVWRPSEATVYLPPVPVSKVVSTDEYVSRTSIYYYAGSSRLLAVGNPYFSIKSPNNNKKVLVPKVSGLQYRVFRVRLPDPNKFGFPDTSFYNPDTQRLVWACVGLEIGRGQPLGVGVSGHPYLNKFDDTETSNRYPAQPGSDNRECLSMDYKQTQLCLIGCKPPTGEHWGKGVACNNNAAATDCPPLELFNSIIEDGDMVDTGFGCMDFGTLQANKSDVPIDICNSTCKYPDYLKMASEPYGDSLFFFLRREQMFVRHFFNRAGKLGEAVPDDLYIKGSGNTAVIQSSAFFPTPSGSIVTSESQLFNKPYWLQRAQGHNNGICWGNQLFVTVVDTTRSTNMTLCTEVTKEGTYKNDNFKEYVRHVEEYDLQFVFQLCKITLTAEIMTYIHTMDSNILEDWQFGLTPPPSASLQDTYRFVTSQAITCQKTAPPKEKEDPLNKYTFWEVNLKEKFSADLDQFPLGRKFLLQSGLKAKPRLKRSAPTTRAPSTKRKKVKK

HPV18 VLP = molecular target: T6, HPV18 VLP (Human papillomavirus type 18, UniProt P06794 62-568)
T6 construct: also called HPV18完整VLP蛋白
T6 sequence: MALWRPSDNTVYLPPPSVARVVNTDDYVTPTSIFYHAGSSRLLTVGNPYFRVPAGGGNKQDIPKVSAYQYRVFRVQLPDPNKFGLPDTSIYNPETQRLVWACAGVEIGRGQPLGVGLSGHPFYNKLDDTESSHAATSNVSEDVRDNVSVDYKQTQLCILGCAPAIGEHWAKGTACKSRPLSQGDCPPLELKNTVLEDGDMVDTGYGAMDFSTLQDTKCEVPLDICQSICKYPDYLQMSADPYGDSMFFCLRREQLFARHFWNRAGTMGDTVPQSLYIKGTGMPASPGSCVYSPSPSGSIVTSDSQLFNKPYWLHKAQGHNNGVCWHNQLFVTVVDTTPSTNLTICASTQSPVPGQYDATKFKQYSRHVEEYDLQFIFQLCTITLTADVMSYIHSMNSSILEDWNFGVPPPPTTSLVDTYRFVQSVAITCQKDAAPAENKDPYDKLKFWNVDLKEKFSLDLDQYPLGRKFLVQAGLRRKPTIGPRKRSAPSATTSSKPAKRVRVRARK

B1: HPV 16 R001 (antibody, V domains shown)
VH: QSVKESEGRLVTPGTPLTLTCTASGFTMSRYHMTWVRQAPGKGLEWIGIIYARNSDTYYANWAKGRFTISKTSTTVDLKITSPTIEDTATYFCARVDSDSSGAFDRLDLWGQGTLVTVSS
VL: DPMLTQTAASVEVAVGGTVTIKCQASQSIGGYLSWYQQKPGQRPKLLIYRASTLASGVPSRFKGSGSGTEYTLTFSGVECADAAAYYCQQGYTSSDINNAFGGGTEVVVK
notes: An HRP-labelled form served as detection antibody in the sandwich ELISA; also called HPV16.001; 单克隆抗体HPV 16 R001
B1 gave an OD450-blank (HPV45 VLP) of 0.002 OD450, an OD450-blank (HPV11 VLP) of 0.001 OD450 and an OD450-blank (HPV59 VLP) of 0 OD450. It also gave an OD450-blank (HPV33 VLP) of 0.001 OD450, an OD450-blank (HPV58 VLP) of 0.003 OD450 and an OD450-blank (HPV18 VLP) of 0 OD450.
